Test results taken from patent US20100009896A1.
Each block holds one substance with its values, some of them ahead of it.

Key:
[1] = target: human carbonic anhydrase II (hCAII) (human) (UniProt P00918); experiment: dot blot; antigen spotted on nitrocellulose, biotinylated biligand anchor in 0.1% serum, streptavidin-HRP
[2] = target: Carbonic anhydrase II (bCAII), from bovine erythrocytes (bovine) (UniProt P00921); experiment: as above
[3] = target: human carbonic anhydrase II (hCAII) (human) (UniProt P00918); experiment: SPR KD of the triligand against SPR KD of the biligand
[4] = target: Carbonic anhydrase II (bCAII), from bovine erythrocytes (bovine) (UniProt P00921); experiment: as above
[5] = target: Carbonic anhydrase II (bCAII), from bovine erythrocytes (bovine) (UniProt P00921); experiment: SPR Biacore T100; bCAII immobilised on CM5, triligand as analyte 0.1-162 nM, 1:1 fit
[6] = target: Carbonic anhydrase II (bCAII), from bovine erythrocytes (bovine) (UniProt P00921); experiment: SPR
[7] = target: human carbonic anhydrase II (hCAII) (human) (UniProt P00918); experiment: SPR Biacore T100; hCAII immobilised on CM5, triligand as analyte 0.1-162 nM, 1:1 fit
[8] = target: Carbonic anhydrase II (bCAII), from bovine erythrocytes (bovine) (UniProt P00921); experiment: SPR Biacore T100; bCAII immobilised on CM5, branched biligand as analyte 0-1656 nM
[9] = target: Carbonic anhydrase II (bCAII), from bovine erythrocytes (bovine) (UniProt P00921); experiment: fluorescence polarization; 6 µM FITC-peptide titrated with bCAII 0.2-800 µM in PBS + 3% DMSO
[10] = target: Carbonic anhydrase II (bCAII), from bovine erythrocytes (bovine) (UniProt P00921); experiment: SPR KD of the biligand against fluorescence polarization KD of the anchor ligand
[11] = target: Carbonic anhydrase II (bCAII), from bovine erythrocytes (bovine) (UniProt P00921); experiment: SPR Biacore T100; bCAII immobilised on CM5, biligand as analyte 2 nM-5 µM, 1:1 fit
[12] = target: Carbonic anhydrase II (bCAII), from bovine erythrocytes (bovine) (UniProt P00921); experiment: SPR Biacore T100; bCAII immobilised on CM5
[13] = target: Carbonic anhydrase II (bCAII), from bovine erythrocytes (bovine) (UniProt P00921); experiment: SPR KD of the biligands against fluorescence polarization KD of the anchor ligand

Chain of Carbonic anhydrase II (bCAII), from bovine erythrocytes (bovine) (P00921 2-260 limits assumed): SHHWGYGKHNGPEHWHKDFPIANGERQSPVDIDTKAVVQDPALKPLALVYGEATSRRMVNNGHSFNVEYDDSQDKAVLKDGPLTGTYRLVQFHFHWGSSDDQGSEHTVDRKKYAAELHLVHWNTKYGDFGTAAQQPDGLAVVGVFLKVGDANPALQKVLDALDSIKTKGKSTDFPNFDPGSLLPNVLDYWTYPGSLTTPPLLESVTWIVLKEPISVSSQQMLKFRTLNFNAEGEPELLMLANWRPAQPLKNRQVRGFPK

Substance: triligand rfviln-Tz2-kwlwGl-Tz1-kfwlkl (peptide)
fold affinity enhancement over biligand [3]: 50 fold
fold affinity enhancement over biligand [4]: 50 fold
Kd [5]: 0.064 µM
Kd [6]: 0.06 µM
Kd [7]: 0.045 µM

Substance: branched biligand capture agent vkw(Tz1)fw-kfwlkl (peptide)
Kd [8]: 0.5 µM

Substance: biligand lklwfk-Tz1-kiwiG (peptide)
fold affinity enhancement over anchor ligand [13]: 150 fold
Kd [11]: 11 µM
Kd [12]: 1 µM

Results, then the substance that gave them:

fold reduction of dot blot sensitivity against the triligand [1]: 10 fold
fold reduction of dot blot sensitivity against the triligand [2]: 10 fold
Substance: biotinylated biligand anchor Biotin-(EG)5-(D-Pra)-kwlwGl-Tz1-kfwlkl (FIG. 14) (peptide)

Kd [9]: 500 µM
Substance: fluoresceinated anchor ligand lklwfk-(D-Pra) (peptide)

fold improvement of dissociation constant over anchor ligand lklwfk-(D-Pra) [10]: 150 fold
Kd [11]: 3 µM
Kd [12]: 1 µM
Substance: biligand kwlwGl-Tz1-kfwlkl (peptide)
